Source: the Immune Epitope Database (IEDB)

Columns and labels:
[1] = target: HLA-B*15:03; assay: IEDB peptide-MHC binding, purified MHC/competitive/radioactivity; filed as Kd, often an IC50 or EC50 that approximates it; ≥ and ≤ were set here for values at or beyond the usual limits of such assays; settings: source organism: Vaccinia virus WR
[2] = target: HLA-A*03:01; assay: IEDB peptide-MHC binding, purified MHC/direct/fluorescence; filed as Kd, often an IC50 or EC50 that approximates it; ≥ and ≤ were set here for values at or beyond the usual limits of such assays
[3] = target: HLA-B*07:02; assay: as above; settings: source organism: Mammarenavirus lassaense
[4] = target: HLA-B*27:05; assay: as above; settings: source organism: Mammarenavirus lassaense
[5] = target: HLA-B*39:01; assay: as above
[6] = target: HLA-B*44:02; assay: as above; settings: source organism: Mammarenavirus lassaense
[7] = target: HLA-B*46:01; assay: as above; settings: source organism: Mammarenavirus lassaense
[8] = target: HLA-A*01:01; assay: as above; settings: source organism: Mycobacterium tuberculosis
[9] = target: HLA-A*29:02; assay: as above
[10] = target: HLA-B*40:01; assay: as above; settings: source organism: Mycobacterium tuberculosis variant bovis BCG str. Pasteur 1173P2
[11] = target: HLA-A*03:01; assay: IEDB peptide-MHC binding, purified MHC/competitive/fluorescence; filed as Kd, often an IC50 or EC50 that approximates it; ≥ and ≤ were set here for values at or beyond the usual limits of such assays
[12] = target: HLA-A*02:03; assay: IEDB peptide-MHC binding, purified MHC/direct/fluorescence; filed as Kd, often an IC50 or EC50 that approximates it; ≥ and ≤ were set here for values at or beyond the usual limits of such assays
[13] = target: HLA-A*02:11; assay: as above; settings: source organism: Zaire ebolavirus
[14] = target: HLA-A*02:12; assay: as above
[15] = target: HLA-A*02:16; assay: as above; settings: source organism: Zaire ebolavirus
[16] = target: HLA-A*02:19; assay: as above
[17] = target: HLA-A*24:03; assay: as above
[18] = target: HLA-A*68:02; assay: as above
[19] = target: HLA-A*02:01; assay: IEDB peptide-MHC binding, purified MHC/competitive/fluorescence; filed as Kd, often an IC50 or EC50 that approximates it; ≥ and ≤ were set here for values at or beyond the usual limits of such assays; settings: source organism: Zaire ebolavirus
[20] = target: HLA-A*26:01; assay: as above
[21] = target: HLA-A*69:01; assay: as above
[22] = target: HLA-B*15:17; assay: as above
[23] = target: HLA-B*27:03; assay: as above
[24] = target: HLA-B*39:01; assay: as above; settings: source organism: Zaire ebolavirus
[25] = target: HLA-B*46:01; assay: as above
[26] = target: HLA-B*51:01; assay: as above
[27] = target: HLA-B*57:01; assay: as above
[28] = target: HLA-B*15:01; assay: as above; settings: source organism: Hantavirus HPR/02-73
[29] = target: HLA-B*18:01; assay: as above; settings: source organism: Hantavirus HPR/02-73
[30] = source organism: Mammarenavirus lassaense
[31] = source organism: Zaire ebolavirus
[32] = source organism: Araucaria virus
[33] = source organism: Hantavirus HPR/02-73

KIVMTPSPF
Kd [1]: 0.211 µM

KREEHYIVL
Kd [2, 30]: ≥ 20 µM | Kd [3]: ≥ 20 µM | Kd [4]: ≥ 20 µM | Kd [5, 30]: 0.1 µM | Kd [6]: ≥ 20 µM | Kd [7]: ≥ 20 µM

LKSPKRCSF
Kd [1]: 0.00274 µM

LMMTLPSIF
Kd [1]: 0.000152 µM

MTSGSSSGF
Kd [8]: ≥ 5 µM | Kd ([9]; source organism: Mycobacterium tuberculosis H37Rv): 0.051 µM

QETWTRLVL
Kd ([5]; source organism: Mycobacterium tuberculosis variant bovis BCG str. Pasteur 1173P2): 0.108 µM | Kd [10]: 0.0389 µM

RLLHRTTRH
Kd ([11]; source organism: Burkholderia vietnamiensis G4): 0.012 µM

SQVRVPTVF
Kd [12, 31]: ≥ 20 µM | Kd [13]: ≥ 20 µM | Kd [14, 31]: ≥ 20 µM | Kd [15]: ≥ 20 µM | Kd [16, 31]: ≥ 20 µM | Kd [2, 31]: ≥ 20 µM | Kd ([17]; source organism: Sudan ebolavirus - Uganda (2000)): ≥ 20 µM | Kd [9, 31]: ≥ 20 µM | Kd [18, 31]: ≥ 20 µM | Kd [19]: ≥ 20 µM | Kd [20, 31]: ≥ 20 µM | Kd [21, 31]: ≥ 20 µM | Kd [22, 31]: ≥ 20 µM | Kd [23, 31]: ≥ 20 µM | Kd [24]: ≥ 20 µM | Kd [25, 31]: ≥ 20 µM | Kd [26, 31]: ≥ 20 µM | Kd [27, 31]: ≥ 20 µM

VIWAASGFY
Kd ([11]; source organism: Yersinia pestis Nepal516): 0.0956 µM

WKAIGAYIL
Kd [12, 32]: ≥ 20 µM | Kd [14, 32]: ≥ 20 µM | Kd [16, 32]: ≥ 20 µM | Kd [2, 32]: ≥ 20 µM | Kd [17, 32]: ≥ 20 µM | Kd [9, 32]: ≥ 20 µM | Kd [18, 32]: ≥ 20 µM | Kd ([5]; source organism: Juquitiba virus): 0.0269 µM | Kd [20, 33]: ≥ 20 µM | Kd [21, 33]: ≥ 20 µM | Kd [28]: ≥ 20 µM | Kd [22, 33]: ≥ 20 µM | Kd [29]: ≥ 20 µM | Kd [23, 33]: ≥ 20 µM | Kd [25, 33]: ≥ 20 µM | Kd [26, 33]: ≥ 20 µM | Kd [27, 33]: ≥ 20 µM
